Numbering of substitutions follows the chain as printed. Names may count otherwise.
B1: IgG with feline IgG1a Fc variant S428M, T286D (antibody)
heavy: DVQLVESGGDLVKPGGSLRLTCVASGLSLTSDSMSWVRQAPGKGLQWVSTLWSNRGTYYTDSVKGRFTISKDNAENTLYLQMNNLKTEDTATYYCASIYYYEADYLHWYFDFWGQGALVTVSSASTTAPSVFPLAPSCGTTSGATVALACLVLGYFPEPVTVSWNSGALTSGVHTFPAVLQASGLYSLSSMVTVPSSRWLSDTFTCNVAHPPSNTKVDKTVRKTDHPPGPKPCDCPKCPPPEAAGGPSIFIFPPKPKDTLSISRTPEVTCLVVDLGPDDSDVQITWFVDNTQVYDAKTSPREEQFNSTYRVVSVLPILHQDWLKGKEFKCKVNSKSLPSPIERTISKAKGQPHEPQVYVLPPAQEELSRNKVSVTCLIKSFHPPDIAVEWEITGQPEPENNYRTTPPQLDSDGTYFVYSKLSVDRSHWQRGNTYTCSVMHEALHSHHTQKSLTQSPG
light: EIQMTQSPTSLSASVGDRVTITCRASEGIANNLSWYQQTPGKAPKLLIYATSNLHSGVPSRFSGSGSGTDFTLTISSLQPEDFATYYCQQGFKWPLTFGGGTKLEITRSDAQPSVFLFQPSLDELHTGSASIVCILNDFYPKEVNVKWKVDGVVQNKGIQESTTEQNSKDSTYSLSSTLTMSSTEYQSHEKFSCEVTHKSLASTLVKSFNRSECQRE
notes: IgG1a constant domain with MALA mutations (M234A, L244A as printed); variable domains from WO 2023/97275
B2: IgG with feline IgG1a Fc variant S428M, T286E (antibody)
heavy: B1 heavy with D295E
light: B1 light
notes: as for B1

Molecular target: T1, feline FcRn (soluble portion of large subunit p51 isoform X1 with C-terminal 6xHis-tag, co-expressed with … (feline, UniProt Q5MGS7 21-118))
T1 construct: Heterodimer made by co-expression in CHO cells, purified on HisTrap FF; also called FcRn complex
Assay: SPR, Biacore T200, IgG captured on Protein L chip, feline FcRn flowed over, pH 5.9, 1:1 fit
Summary of the method: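 Biacore T200; antibody variants captured via kappa chain on Protein L chip (10 μL/min, 60 s), feline FcRn injected at 30 μL/min, 120 s contact, 600 s dissociation, in PBS-P+ running buffer at pH 5.9. Glycine pH 1.7 regeneration; kinetics fitted to 1:1 model.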

T1 sequence (chain, as listed by the source limits assumed, chain 1 of 2): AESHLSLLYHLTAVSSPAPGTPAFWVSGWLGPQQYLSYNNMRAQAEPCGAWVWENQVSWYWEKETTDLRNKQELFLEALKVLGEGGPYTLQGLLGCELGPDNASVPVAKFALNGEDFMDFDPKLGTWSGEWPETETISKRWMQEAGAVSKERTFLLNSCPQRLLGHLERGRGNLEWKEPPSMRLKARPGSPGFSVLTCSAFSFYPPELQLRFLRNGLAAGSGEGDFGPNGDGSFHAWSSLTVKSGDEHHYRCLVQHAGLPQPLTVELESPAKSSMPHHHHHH
T1 sequence (Q5MGS7 other isoform, or with tags, fused parts or gaps limits assumed, chain 2 of 2): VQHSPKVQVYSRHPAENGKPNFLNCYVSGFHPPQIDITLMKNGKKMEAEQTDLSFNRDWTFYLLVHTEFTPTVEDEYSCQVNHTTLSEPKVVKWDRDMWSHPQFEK

Row | Binder | Kd | koff | kon
1 | B1 | 34.9 nM | 0.0372 s⁻¹ | 1.07e+06 M⁻¹ s⁻¹
2 | B2 | 27.4 nM | 0.0292 s⁻¹ | 1.07e+06 M⁻¹ s⁻¹

Source: patent publication US20240209062A1 (INVETX, published 2024)
